Assay in all cases: cell-based or functional assay
For experiment [1], the target named is HIV-1AD8 Env (HIV-1 AD8).
Experiment [2] concerns the target HIV-1BG505 Env (HIV-1 BG505).
Experiment [3] has as its target HIV-1C1086 Env (HIV-1 C1086).
Experiment [4] concerns the target HIV-1CM244 Env (HIV-1 CM244).
For experiment [5], the target named is HIV-1JRCSF Env (HIV-1 JRCSF) (UniProt P20871).
In experiment [6] the target is HIV-1YU2 Env (HIV-1 YU2) (UniProt P35961).
The target in experiment [7] is HIV-1ZM109 Env (HIV-1 ZM109).

The text below walks through data of patent publication US20240285790A1.

Sequence of HIV-1JRCSF Env (HIV-1 JRCSF) (P20871 32-848 limits assumed): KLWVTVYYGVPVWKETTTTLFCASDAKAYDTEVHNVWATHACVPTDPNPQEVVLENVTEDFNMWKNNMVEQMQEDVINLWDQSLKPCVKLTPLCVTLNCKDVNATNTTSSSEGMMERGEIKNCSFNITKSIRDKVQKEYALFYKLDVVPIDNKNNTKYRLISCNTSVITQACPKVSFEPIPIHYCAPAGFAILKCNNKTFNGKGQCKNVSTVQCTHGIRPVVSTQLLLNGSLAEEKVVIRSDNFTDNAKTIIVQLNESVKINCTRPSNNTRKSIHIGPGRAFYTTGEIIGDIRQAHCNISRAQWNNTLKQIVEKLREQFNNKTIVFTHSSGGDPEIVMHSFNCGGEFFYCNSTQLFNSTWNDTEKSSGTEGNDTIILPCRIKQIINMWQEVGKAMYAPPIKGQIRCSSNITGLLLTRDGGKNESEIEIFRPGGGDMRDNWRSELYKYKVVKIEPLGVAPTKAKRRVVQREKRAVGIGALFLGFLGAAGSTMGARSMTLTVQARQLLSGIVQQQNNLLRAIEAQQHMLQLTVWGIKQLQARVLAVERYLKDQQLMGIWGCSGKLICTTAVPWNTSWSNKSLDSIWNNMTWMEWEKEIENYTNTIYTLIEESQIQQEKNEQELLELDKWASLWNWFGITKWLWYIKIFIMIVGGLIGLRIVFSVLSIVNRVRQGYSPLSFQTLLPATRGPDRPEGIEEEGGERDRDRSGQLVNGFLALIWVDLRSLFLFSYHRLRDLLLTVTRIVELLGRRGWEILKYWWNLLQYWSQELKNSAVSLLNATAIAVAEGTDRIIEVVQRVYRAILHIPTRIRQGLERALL
Sequence of HIV-1YU2 Env (HIV-1 YU2) (P35961 32-843 limits assumed): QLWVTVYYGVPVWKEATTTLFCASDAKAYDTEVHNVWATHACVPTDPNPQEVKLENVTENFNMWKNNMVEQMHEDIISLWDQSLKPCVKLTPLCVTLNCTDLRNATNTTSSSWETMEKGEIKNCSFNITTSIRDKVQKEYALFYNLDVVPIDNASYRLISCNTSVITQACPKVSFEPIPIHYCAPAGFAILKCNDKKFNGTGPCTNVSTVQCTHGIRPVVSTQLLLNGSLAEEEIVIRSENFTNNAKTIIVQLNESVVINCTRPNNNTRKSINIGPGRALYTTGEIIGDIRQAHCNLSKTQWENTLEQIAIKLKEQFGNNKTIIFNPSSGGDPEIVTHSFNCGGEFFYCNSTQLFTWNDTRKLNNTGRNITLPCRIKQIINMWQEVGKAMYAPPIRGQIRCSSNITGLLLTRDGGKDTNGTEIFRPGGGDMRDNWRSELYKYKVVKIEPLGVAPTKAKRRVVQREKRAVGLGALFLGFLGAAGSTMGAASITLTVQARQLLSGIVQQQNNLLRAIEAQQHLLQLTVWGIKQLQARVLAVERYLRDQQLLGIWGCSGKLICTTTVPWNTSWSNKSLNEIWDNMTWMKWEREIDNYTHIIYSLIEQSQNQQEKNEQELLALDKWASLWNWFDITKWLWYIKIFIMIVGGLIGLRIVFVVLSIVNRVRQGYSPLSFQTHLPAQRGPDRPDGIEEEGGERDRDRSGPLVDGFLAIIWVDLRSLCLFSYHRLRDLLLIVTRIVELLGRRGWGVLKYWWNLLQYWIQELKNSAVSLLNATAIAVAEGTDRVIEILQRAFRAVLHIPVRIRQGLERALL

Turning to 17b-CD4 conjugate, the Neutralization IC50 in experiment [1] came out at 0.877 µg/mL; in experiment [2], 2.64 µg/mL; in experiment [3], 0.269 µg/mL; in experiment [4] it was 0.609 µg/mL; in experiment [5], 0.807 µg/mL; in experiment [6] it was 0.082 µg/mL. The same substance came in with a Neutralization IC50 in experiment [7] of 0.113 µg/mL.
